Our source for the percent bound and percent bound (D1/D2 and F/E/G added together) values is publication PMC10470402.

The target in the assay is S. pombe HT-Gemin2 (S. pombe) (UniProt P0CU08). As to the kind of experiment: pull-down.
Sequence of S. pombe HT-Gemin2 (S. pombe) (P0CU08 whole entry): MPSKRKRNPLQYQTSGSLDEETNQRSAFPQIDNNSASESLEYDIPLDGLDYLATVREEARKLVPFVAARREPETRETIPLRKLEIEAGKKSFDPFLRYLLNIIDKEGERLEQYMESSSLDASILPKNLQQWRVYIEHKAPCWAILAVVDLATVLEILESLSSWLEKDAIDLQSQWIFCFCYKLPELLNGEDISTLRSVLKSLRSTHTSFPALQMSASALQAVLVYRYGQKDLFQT

In the case of “S. pombe SmD1/SmD2 subcomplex, HT-tag removed (from UniProt O42661 1-117; O14036 1-115)”, the percent bound is 4.1%; the percent bound (D1/D2 and F/E/G added together) was determined as 15.1%.

Regarding “S. pombe SmF/SmE/SmG subcomplex, HT-tag removed (from UniProt O59734 1-78; Q9USZ3 1-84; O74966 1-77)”, the percent bound was determined as 7.4%; the percent bound (D1/D2 and F/E/G added together) amounted to 9.2%.
